Measured values as given in US20220088148A1 (HANMI PHARM, published 2022).
Bridges are numbered along the chain shown (N, C = ends). Where no end group is shown, it is not given here. [ ]: non-standard residue; d: D form. The star is where a group is joined. Acetyl(2-(4-imidazolyl)) = O=C(Cc1c[nH]cn1)*; Aib = CC(C)(N)C(=O)O

T1: human GIP receptor (human, UniProt P48546 22-466)
T1 sequence (looked up): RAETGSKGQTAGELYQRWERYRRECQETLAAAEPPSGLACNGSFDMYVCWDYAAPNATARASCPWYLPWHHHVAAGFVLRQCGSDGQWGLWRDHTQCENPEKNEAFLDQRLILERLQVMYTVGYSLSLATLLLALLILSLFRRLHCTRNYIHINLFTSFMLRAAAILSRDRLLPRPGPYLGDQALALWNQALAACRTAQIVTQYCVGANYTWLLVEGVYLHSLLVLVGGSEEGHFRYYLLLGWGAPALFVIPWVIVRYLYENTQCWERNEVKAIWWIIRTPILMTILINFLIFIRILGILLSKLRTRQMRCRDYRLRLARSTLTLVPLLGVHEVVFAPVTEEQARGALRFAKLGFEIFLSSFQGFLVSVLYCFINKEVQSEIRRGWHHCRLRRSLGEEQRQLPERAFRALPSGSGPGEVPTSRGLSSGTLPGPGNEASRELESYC


Tests used:
Test in all cases: cell-based or functional assay
[1] = molecular target: human GCG receptor (human, UniProt P47871 26-477)
human GCG receptor, sequence (P47871 26-477): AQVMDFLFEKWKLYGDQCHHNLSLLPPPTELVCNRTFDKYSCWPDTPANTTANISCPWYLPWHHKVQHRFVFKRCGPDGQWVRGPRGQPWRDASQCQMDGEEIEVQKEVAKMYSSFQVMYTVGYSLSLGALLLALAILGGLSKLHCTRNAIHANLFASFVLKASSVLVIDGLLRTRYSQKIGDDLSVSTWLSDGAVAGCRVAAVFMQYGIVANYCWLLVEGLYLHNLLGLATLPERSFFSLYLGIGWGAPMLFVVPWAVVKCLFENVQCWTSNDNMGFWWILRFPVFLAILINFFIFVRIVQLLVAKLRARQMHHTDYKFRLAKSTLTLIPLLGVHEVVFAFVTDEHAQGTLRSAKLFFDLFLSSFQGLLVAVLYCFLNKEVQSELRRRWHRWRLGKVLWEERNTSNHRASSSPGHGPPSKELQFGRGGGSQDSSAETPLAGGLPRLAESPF

[2] = molecular target: human GLP-1 receptor (human, UniProt P43220 24-463)
[3] = molecular target: T1, human GIP receptor

Binder | In vitro activity (%) vs. Glucagon, cAMP EC50 [1] [%] | In vitro activity (%) vs. GLP-1, cAMP EC50 [2] [%] | In vitro activity (%) vs. GIP, cAMP EC50 [3] [%]
[Acetyl(2-(4-imidazolyl))]GEGTFISDLSKYMDEQAVQLFVEWLMAGGPSSGAPPPSHG [triple agonist of SEQ ID NO: 12] | < 0.1 | 0.4 | < 0.1
[Acetyl(2-(4-imidazolyl))]GQGTFTSDLSKQMDSERAREFIEWLKNTGPSSGAPPPSHG [triple agonist of SEQ ID NO: 18] | < 0.1 | < 0.1 | < 0.1
Y[Aib]QGTFTSDYSKCLDEKRAKEFVQWLLDHHPSSGQPPPS (bridge 16-20) [triple agonist of SEQ ID NO: 22] | 140 | 20.1 | 59.7
[Acetyl(2-(4-imidazolyl))]GQGTFTSDLSKQMDEERAREFIEWLLAQKPSSGAPPPSHG [triple agonist of SEQ ID NO: 17] | < 0.1 | 0.2 | < 0.1
H[Aib]QGTFTSDYSKYLDEKAQKEFVQWLLDTC (bridge 16-20) [triple agonist of SEQ ID NO: 30] | 0.7 | 142 | 0.8
[Acetyl(2-(4-imidazolyl))]GEGTFTSDLSKYLDSRRQQLFVQWLKAGGPSSGAPPPSHG [triple agonist of SEQ ID NO: 11] | < 0.1 | 1.4 | < 0.1
[Acetyl(2-(4-imidazolyl))]GEGTFISDYSIQLDEIAVQDFVEWLLAQKPSSGAPPPSHG [triple agonist of SEQ ID NO: 13] | < 0.1 | < 0.1 | < 0.1
H[Aib]QGTFTSDYSKYLDEKACKEFVQWLLAQ (bridge 16-20) [triple agonist of SEQ ID NO: 31] | 2.2 | 135 | 2.4
[Acetyl(2-(4-imidazolyl))]GQGTFTSDLSKQMDSEAQQLFIEWLKNGGPSSGAPPPSHG [triple agonist of SEQ ID NO: 16] | < 0.1 | 2.1 | < 0.1
H[Aib]QGTFTSDYSKYLDEKAAKEFVQWLLNTC (bridge 16-20) [triple agonist of SEQ ID NO: 29] | 6 | 38.5 | < 0.1
H[Aib]QGTFTSDVSSYLLGQAAKQFIAWLVKGGGPSSGAPPPSC [triple agonist of SEQ ID NO: 3] | < 0.1 | 1.8 | < 0.1
Y[Aib]QGTFTSDYSKYLDECRAKEFVQWLLDHHPSSGQPPPS (bridge 16-20) [triple agonist of SEQ ID NO: 21] | 267 | 17.8 | 22.7
[Acetyl(2-(4-imidazolyl))]GQGTFTSDYSIQLDEIAVRDFVEWLKNGGPSSGAPPPSHG [triple agonist of SEQ ID NO: 14] | < 0.1 | 28 | < 0.1
H[Aib]QGTFTSDYSIAMDEIHQKDFVNWLLAQKC (bridge 16-20) [triple agonist of SEQ ID NO: 33] | < 0.1 | 24.5 | 10.4
Y[Aib]QGTFTSDYSKYLDECRAKEFVQWLLAQKGKKNDWKHNIT (bridge 16-20) [triple agonist of SEQ ID NO: 23] | 9.3 | 4.01 | < 0.1
H[Aib]QGTFTSDYSKYLDEKRAQEFVCWLLAQKGKKNDWKHNIT [triple agonist of SEQ ID NO: 28] | 1.6 | 17.2 | < 0.1
[Acetyl(2-(4-imidazolyl))]GQGTFTSDLSIQYEEEAQQDFVEWLKDTGPSSGAPPPSHG [triple agonist of SEQ ID NO: 20] | < 0.1 | < 0.1 | < 0.1
[Acetyl(2-(4-imidazolyl))]GQGTFTSDLSIQYDSEHQRDFIEWLKDTGPSSGAPPPSHG [triple agonist of SEQ ID NO: 19] | < 0.1 | < 0.1 | < 0.1
H[Aib]QGTFTSDVSSYLDGQAQKEFIAWLVKGC [triple agonist of SEQ ID NO: 2] | < 0.1 | 5.9 | < 0.1
